Consider seven molecules from article PMC8216289 (Nucleic Acids Research, 2021).

Series [1] has as its target zinc uptake regulator (Zur) from Xanthomonas campestris pv. campestris (XcZur) (Xanthomonas campestris pv. campestris strain 8004). Kind of series: AUC.
The target is the same in series [2]. Kind of series: AUC. This is another data set of the same source.
Series [3] concerns the target T1, XcZur (Xanthomonas campestris pv. campestris …, UniProt Q4UWS5 1-172).
T1 sequence: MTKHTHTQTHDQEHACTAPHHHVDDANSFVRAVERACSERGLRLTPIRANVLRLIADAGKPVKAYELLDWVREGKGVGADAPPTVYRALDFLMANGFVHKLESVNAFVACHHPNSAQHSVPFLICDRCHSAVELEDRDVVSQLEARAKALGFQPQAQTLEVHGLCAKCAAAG
Kind of series: EMSA.

For series [4], the target named is T1, XcZur. Kind of series: BLI.
The series “crystal structure” deals with the molecule itself. Kind of series: crystal structure.
The target of series [5] is T1, XcZur. Kind of series: EMSA. This is another data set of the same source. In general terms: In EMSA bound probe runs differently from free probe, usually more slowly.

Where two headings read alike, the source gives them in different places.

By stoichiometry N is commonly meant a count of units in the complex or per binding partner. In series [1], “zinc uptake regulator (Zur) from Xanthomonas campestris pv. campestris (XcZur) (natural protein)” gave a percent as dimers of 60.3%, a percent as monomers of 28.9%, a percent as tetramers of 4.9% and a stoichiometry N of 2. Also, in series [2], the percent as dimers is 32.9%, the percent as monomers was 60.5%, the percent as trimers was found to be 5.8% and the stoichiometry N is 2.

B1: EcZur-box (dsDNA)
DNA 1: AGAAGTGTGATATTATAACATTTCATGACTATG
DNA 2: CATAGTCATGAAATGTTATAATATCACACTTCT
In the case of B1, the binding result with XcZur [3] is “binds”.

B2: P0267-Biotin (dsDNA)
DNA 1: GGCGAGTTGTTATACAGTAACATTTCTAG
DNA 2: CTAGAAATGTTACTGTATAACAACTCGCC
Broadly, the Kd is the equilibrium constant for the complex coming apart. High values mean lower affinity, low ones higher affinity. As for B2, in the series with XcZur [4], the Kd was around 22 nM.

B3: N-terminal extension deleted XcZur (T17-G172) (domain or fragment)
chain: TAPHHHVDDANSFVRAVERACSERGLRLTPIRANVLRLIADAGKPVKAYELLDWVREGKGVGADAPPTVYRALDFLMANGFVHKLESVNAFVACHHPNSAQHSVPFLICDRCHSAVELEDRDVVSQLEARAKALGFQPQAQTLEVHGLCAKCAAAG
Take B3: the binding result in “crystal structure” is on record as “binds”.

B4: P2472-Biotin (dsDNA)
DNA 1: AAGTGTTATAAAGTAACACTAGTCGCG
DNA 2: CGCGACTAGTGTTACTTTATAACACTT
B4: the Kd in the series with XcZur [4] is around 38 nM.

B5: P2976 (dsDNA)
DNA 1: TTAGGGCCACGCGGTTGCGGAGACTATTACACCGGCGCGTGATGAGATCACATCACGTG
DNA 2: CACGTGATGTGATCTCATCACGCGCCGGTGTAATAGTCTCCGCAACCGCGTGGCCCTAA
As for B5, the binding result in the series with XcZur [5] is “no binding”.

B6: P3788-Biotin (dsDNA)
DNA 1: ATTGATACGTTATCACATTGCGCCCCGCGCT
DNA 2: AGCGCGGGGCGCAATGTGATAACGTATCAAT
As to B6, the dissociation constant (Kd) with XcZur [4] is around 63 nM.
